The target in assay [1] is T1, His-tagged CEACAM1 (human, UniProt P13688 35-428).
T1 construct: 45 kDa SPR analyte; also called CEACAM1-HIS; CEACAM1 analyte
T1 sequence: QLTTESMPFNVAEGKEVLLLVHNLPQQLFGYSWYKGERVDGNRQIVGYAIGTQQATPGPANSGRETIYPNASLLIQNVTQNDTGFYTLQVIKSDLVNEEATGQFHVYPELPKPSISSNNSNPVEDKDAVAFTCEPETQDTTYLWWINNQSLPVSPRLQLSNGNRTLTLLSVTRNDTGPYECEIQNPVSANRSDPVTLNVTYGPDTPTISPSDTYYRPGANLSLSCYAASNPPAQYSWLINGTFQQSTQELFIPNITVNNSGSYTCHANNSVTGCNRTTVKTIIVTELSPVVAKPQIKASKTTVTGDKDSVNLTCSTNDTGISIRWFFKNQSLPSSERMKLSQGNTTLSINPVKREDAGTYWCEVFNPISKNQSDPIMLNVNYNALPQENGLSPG
Description: SPR single-cycle, IgG captured. The method, then:
As an alternative approach to assess the binding of the 36 antibody combinations and the three control antibodies to CEACAM1, a kinetic analysis was performed on a Biacore T200 (serial no. 1909913) running Biacore T200 Evaluation Software V2.0.1 (Uppsala, Sweden). All experiments were run at 25° C. with HBS-P+ running buffer (pH 7.4) (GE Healthcare, cat. no. BR100671). All kinetic experiments were performed using His-tagged CEACAM1 as the analyte. For all experiments, antibodies were immobilized onto a Series S Protein A sensor chip surface. For kinetic experiments, the amount of immobilized/captured ligand was limited to avoid mass transfer effects at the surface of the chip with the surface ideally having an analyte binding level (Rₘₐₓ) of 50-150 RUs. Using a MW of 45 kDa for the CEACAM1 analyte, 150 kDa for the antibody ligand (estimated value for IgG), 50 RU for Rmax and the stoichiometry (Sm) as 2 due to the ability of each antibody to bind 2 target molecules, a target response level of ˜75 RUs was set for capture of all the sample antibodies.
Single cycle analysis of the 36 antibody combinations and the three control antibodies was performed on purified antibodies (Vκ1 to Vκ6 variants) or on the supernatants of the transiently transfected HEK EBNA cells (Vκ7 to Vκ12 variants). In some instances, where supernatant was not available, purified chimeric antibody VH0/Vκ0 was spiked into HEK EBNA culture medium to use as a positive control. Antibodies were diluted in HBS-P+ to a concentration of 1 μg/ml (as determined by an IgG quantitation ELISA). At the start of each cycle, antibodies were loaded onto Fc2, Fc3 and Fc4 of a protein A chip and IgG captured at a flow rate of 8 μl/min to give an RU of ˜75. The surface was then allowed to stabilize. Single cycle kinetic data was obtained at a flow rate of 50 μl/min to minimize any potential mass transfer effects. Multiple repeats of the chimeric antibody VH0/Vκ0 were performed to check the stability of the surface and analyte over the kinetic cycles. The signal from the reference channel Fc1 (no antibody) was subtracted from that of Fc2, Fc3 and Fc4 to correct for differences in non-specific binding to a reference surface. A 5 point 2-fold dilution range from 3.125 to 50 nM CEACAM1 without regeneration between each concentration was used.

Assay [2] has as its target T1, His-tagged CEACAM1. Description: SPR single-cycle, purified IgG captured. The method in brief: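 Purified IgG was captured on a Series S Protein A chip in a Biacore T200 at 25° C in HBS-P+ (pH 7.4), with His-tagged CEACAM1 as the analyte in single-cycle kinetics surface plasmon resonance. Kon, koff and Kd were fitted from signals corrected for the reference channel and blank runs, and relative KD was calculated against the parent antibody tested alongside.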

Assay [3] deals with T1, His-tagged CEACAM1. In words: SPR single-cycle, supernatant IgG captured. In outline: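 IgG came from supernatants of HEK EBNA cells transiently transfected by PEI in 6-well plates and harvested 5-7 days later. Supernatants were quantified by ELISA and filtered. Single-cycle surface plasmon resonance was run on a Biacore T200 at 25° C in HBS-P+ (pH 7.4), with IgG captured on Protein A and His-tagged CEACAM1 as analyte. Kon, koff and Kd were fitted, and relative KD was calculated against the parent antibody assayed in the same experiment.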

Assay [4] addresses T1, His-tagged CEACAM1. Description: SPR single-cycle, supernatant IgG captured. The procedure:
In order to assess the binding of the humanized, affinity matured reformatted lead IgGs, single-cycle kinetics analysis was performed on crude supernatants using a Biacore T200 running Biacore T200 Control Software V2.0.1 and Biacore T200 Evaluation Software V3.0. Antibodies were diluted in HBS-P+ to a final concentration of 0.5 μg/ml. At the start of each cycle, antibodies were loaded onto Fc2, Fc3 and Fc4 of the Protein A chip. IgGs were captured at a flow rate of 10 μl/min to give an immobilisation level (RL) of ˜100 RU (a level calculated to obtain a Rₘₐₓ of ˜50-150 RU once the analyte is bound). The surface was then allowed to stabilize. Single-cycle kinetics data was obtained with CEACAM1 as the analyte at a flow rate of 80 μl/min to minimize any potential mass transfer effects. Multiple repeats with the parent (VH1/Vκ8 S29A) antibody were performed to check the stability of the surface and analyte over the kinetic cycles. The signal from the reference channel Fc1 (no antibody) was subtracted from that of Fc2, Fc3 and Fc4 to correct for differences in non-specific binding to the reference surface. A three point, two-fold dilution range from 70 nM to 280 nM CEACAM1 without regeneration between each concentration was used. The signal from each antibody blank run (no CEACAM1) was subtracted to correct for differences in surface stability. The association phase for the three injections of increasing concentrations of CEACAM1 was monitored for 80 seconds each time and a single dissociation phase was measured for 150 seconds following the last injection of CEACAM1. Regeneration of the Protein A surface was conducted using two injections of 10 mM glycine-HCL pH 1.5 followed by a stabilization period of 250 seconds.
This is another data set of the same source.

Where a chain is given by its changes, count along the chain named. Names and notes keep the numbering of the source.

By Kd is commonly meant a measure of binding affinity in units of concentration. In general, koff refers to the rate constant with which the complex falls apart. As a reminder, the kon is a measure of how fast the partners come together.

B1: VH1/Vκ0 (antibody, IgG4, V domains shown)
VH: EVQLLESGGGLVQPGGSLRLSCAASGFIFSSHGMSWVRQAPGKGLEWVATISSGGTYTYYPDSVKGRFTISRDNSKNTLYLQMNSLKAEDTAMYYCARHDFDYDAAWFAYWGQGTLVTVSS
VL: QIVLTQSPALMSASPGVKVTMTCSANSSVSYMYWYRQKPRSSPKPWIYLTSNLASGVPARFSGSGSGTSYSLTISSMEAEDAATYYCQQWSSNPPTFGSGTKLEIK
notes: IgG4 (S241P), kappa; also called VH1/Vκ0 (control)
As to B1, in the assay with His-tagged CEACAM1 [1], the dissociation constant (Kd) stood at 64 nM and the “relative KD to VH0/Vκ0” value amounted to 1.5.

B2: VH0/Vκ1 (antibody, IgG4, V domains shown)
VH: B1 VH with L5V, G10D, Q13K, R19K, S21A, A40T, G42D, G44R, S75D, A88S
VL: QIVLTQSPALLSLSPGERATMSCSANSSVSYMYWYRQKPGQAPKPWIYLTSNLASGVPARFSGSGSGTDYTLTISSLEAEDFATYYCQQWSSNPPTFGQGTKLEIK
notes: IgG4 (S241P), kappa; also called VH0/Vκ1 (control)
Take B2: in the assay with His-tagged CEACAM1 [1], the Kd was 49 nM and the “relative KD to VH0/Vκ0” value was 1.2.

B3: VH2/Vκ6 (antibody, IgG4, V domains shown)
VH: B1 VH with K87R
VL: DIQLTQSPSFLSASVGDRVTITCRANSSVSYMAWYQQKPGKAPKLLIYLTSNLQSGVPSRFSGSGSGTEFTLTISSLQPEDFATYYCQQWSSNPPTFGQGTKLEIK
notes: IgG4 (S241P), kappa
For B3, the binding result in the assay with His-tagged CEACAM1 [1] is given as “no binding (tested: 50 nM)”.

B4: CP09B03/CP08E05 (antibody, IgG4, V domains shown)
VH: B1 VH with I28T, S30N, S31A, G33A, M34I
VL: EIVLTQSPATLSLSPGERATLSCRANSAVSYMYWYQQKPGQAPRPWIYLTSNRATGVPARFSGSGSGTDYTLTISSLEPEDFAVYYCQQWTTNPPTFGQGTKLEIK
notes: IgG4 (S241P), kappa
For B4, in the assay with His-tagged CEACAM1 [2], the Kd amounted to 90 nM, the koff is 0.0096 s⁻¹, the kon was 110000 M⁻¹ s⁻¹ and the “relative KD to parent” value worked out at 5.3. Also, in the assay with His-tagged CEACAM1 [3], the Kd was found to be 97 nM, the koff turned out to be 0.01 s⁻¹, the kon was 110000 M⁻¹ s⁻¹ and the “relative KD to parent” value is 5.7.

B5: VH3/Vκ6 (antibody, IgG4, V domains shown)
VH: B1 VH with P61A, K87R
VL: B3 VL
notes: IgG4 (S241P), kappa
On to B5, for which the binding result with His-tagged CEACAM1 [1] is listed as “no binding (tested: 50 nM)”.

B6: 8H3_9E5/CP08F05 (antibody, IgG4, V domains shown)
VH: B1 VH with D100G, D104F, A105P, A106Y, Y110H
VL: B4 VL with T92S
notes: IgG4 (S241P), kappa
With B6, in the assay with His-tagged CEACAM1 [4], the affinity, expressed as Kd, was 280 nM; the koff came out at 0.028 s⁻¹; the kon stood at 77000 M⁻¹ s⁻¹; the “relative KD to parent” value is 2.

B7: 9B3_9E5/Vκ8 S29A (antibody, IgG4, V domains shown)
VH: B1 VH with I28T, S30N, S31A, G33A, M34I, D100G
VL: B4 VL with T91S, T92S
notes: IgG4 (S241P), kappa
On to B7, for which, in the assay with His-tagged CEACAM1 [4], the dissociation constant (Kd) came to 150 nM, the koff amounted to 0.021 s⁻¹, the kon worked out at 140000 M⁻¹ s⁻¹ and the “relative KD to parent” value is 3.8.

B8: VH4/Vκ6 (antibody, IgG4, V domains shown)
VH: B1 VH with A49S, P61A, K87R, M93V
VL: B3 VL
notes: IgG4 (S241P), kappa
B8: the binding result with His-tagged CEACAM1 [1] is listed as “no binding (tested: 50 nM)”.

B9: 9B3_9E5/CP08F05 (antibody, IgG4, V domains shown)
VH: B1 VH with I28T, S30N, S31A, G33A, M34I, D100G
VL: B4 VL with T92S
notes: IgG4 (S241P), kappa
For the molecule B9, in the assay with His-tagged CEACAM1 [4], the Kd worked out at 95 nM, the koff worked out at 0.012 s⁻¹, the kon was 130000 M⁻¹ s⁻¹ and the “relative KD to parent” value was 5.9.

B10: 9B3_9E5_8H3/CP08E05 (antibody, IgG4, V domains shown)
VH: B1 VH with I28T, S30N, S31A, G33A, M34I, D100G, D104F, A105P, A106Y, Y110H
VL: B4 VL
notes: IgG4 (S241P), kappa
Take B10: in the assay with His-tagged CEACAM1 [4], the Kd turned out to be 270 nM, the koff was 0.022 s⁻¹, the kon was 82000 M⁻¹ s⁻¹ and the “relative KD to parent” value is 1.9.

B11: 9B3_9E5_8H3/Vκ8 S29A (antibody, IgG4, V domains shown)
VH: B1 VH with I28T, S30N, S31A, G33A, M34I, D100G, D104F, A105P, A106Y, Y110H
VL: B4 VL with T91S, T92S
notes: IgG4 (S241P), kappa
B11: in the assay with His-tagged CEACAM1 [4], the affinity, expressed as Kd, was 210 nM; the koff amounted to 0.02 s⁻¹; the kon stood at 95000 M⁻¹ s⁻¹; the “relative KD to parent” value worked out at 2.4.

B12: 9B3_9E5_8H3/CP08F05 (antibody, IgG4, V domains shown)
VH: B1 VH with I28T, S30N, S31A, G33A, M34I, D100G, D104F, A105P, A106Y, Y110H
VL: B4 VL with T92S
notes: IgG4 (S241P), kappa
With B12, in the assay with His-tagged CEACAM1 [4], the Kd turned out to be 210 nM, the koff was found to be 0.018 s⁻¹, the kon came out at 86000 M⁻¹ s⁻¹ and the “relative KD to parent” value amounted to 2.4.

B13: VH1/Vκ6 (antibody, IgG4, V domains shown)
VH: B1 VH
VL: B3 VL
notes: IgG4 (S241P), kappa
For the molecule B13, in the assay with His-tagged CEACAM1 [1], the binding result is “no binding (tested: 50 nM)”.

B14: 8H3_9C2/Vκ8 S29A (antibody, IgG4, V domains shown)
VH: B1 VH with G26E, I28T, S31D, G33A, D100G, D104F, A105P, A106Y, Y110H
VL: B4 VL with T91S, T92S
notes: IgG4 (S241P), kappa
B14: in the assay with His-tagged CEACAM1 [4], the affinity, expressed as Kd, was 110 nM; the koff worked out at 0.0071 s⁻¹; the kon turned out to be 65000 M⁻¹ s⁻¹; the “relative KD to parent” value is 5.1.

B15: 8H3_9E5/CP08E05 (antibody, IgG4, V domains shown)
VH: B1 VH with D100G, D104F, A105P, A106Y, Y110H
VL: B4 VL
notes: IgG4 (S241P), kappa
B15: in the assay with His-tagged CEACAM1 [4], binding was characterised by a dissociation constant (Kd) of 320 nM, the dissociation rate constant (koff) worked out at 0.025 s⁻¹, the kon is 79000 M⁻¹ s⁻¹ and the “relative KD to parent” value is 1.8.

B16: 8H3_9E5/Vκ8 S29A (antibody, IgG4, V domains shown)
VH: B1 VH with D100G, D104F, A105P, A106Y, Y110H
VL: B4 VL with T91S, T92S
notes: IgG4 (S241P), kappa
For B16, in the assay with His-tagged CEACAM1 [4], the Kd turned out to be 300 nM, the koff was found to be 0.024 s⁻¹, the kon was 81000 M⁻¹ s⁻¹ and the “relative KD to parent” value was determined as 1.9.

The values above are taken from patent US20250074980A1 (BRIGHAM AND WOMEN S HOSPITAL, published 2025).
